Experimental data: paper PMC8376927 (2021)
Non-standard residues stand in square brackets, D forms with d. No end group written: not given here. *: point of attachment. 5FAM = O=C1OC2(c3ccc(O)cc3Oc3cc(O)ccc32)c2ccc(C(=O)*)cc21; pS = N[C@@H](COP(=O)(O)O)C(=O)O

Target: T1, Human 14-3-3γ WT (human, UniProt P61981 1-247)
T1 chain: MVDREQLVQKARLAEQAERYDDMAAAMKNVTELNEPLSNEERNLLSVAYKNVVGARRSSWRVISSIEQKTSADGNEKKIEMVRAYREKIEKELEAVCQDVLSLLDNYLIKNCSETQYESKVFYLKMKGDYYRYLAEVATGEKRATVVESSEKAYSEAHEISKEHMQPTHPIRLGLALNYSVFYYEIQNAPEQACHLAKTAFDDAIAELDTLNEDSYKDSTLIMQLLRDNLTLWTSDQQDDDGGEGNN
Test: FP

Question: For 5FAM-RRRWKL[pS]FSIV [FAM-aidDAPK-pS318 peptide (FAM-RRRWKLpSFSIV)], which Kd is on record?
Answer: 48 µM
